According to patent US20190112382A1 (published 2019):
Substitutions are numbered along the chain they refer to.

T1: extracellular domain of human CD269 (BCMA, TNFRSF17) (human, UniProt Q02223 4-54)
T1 construct: also called hBCMA; human BCMA
T1 sequence: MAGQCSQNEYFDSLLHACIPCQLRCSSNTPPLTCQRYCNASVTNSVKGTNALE

B1: J22.9-H (antibody, V domains shown)
VH: EVQLVESGGGLVQPGGSLRLSCAASGFTFSRYWMSWVRQAPGKGLVWVGEINPDSSTINYAPSLKDKFTISRDNAKNTLYLQMNSLRAEDTAVYYCASLYYDYGDAMDYWGQGTLVTVSS
VL: EIVMTQSPATLSVSPGERATLSCKASQSVDSNVAWYQQKPGQAPRALIYSASLRFSGIPARFSGSGSGTEFTLTISSLQSEDFAVYYCQQYNNYPLTFGAGTKLELKR
B2: J22.9-FSY (antibody, V domains shown)
VH: B1 VH with M34F, D54S, M107Y
VL: EIVMTQSPATLSVSPGERATLSCKASQSVESNVAWYQQKPGQAPRALIYSASLRFSGIPARFSGSGSGTEFTLTISSLQSEDFAVYYCQQYNNYPLTFGAGTKLELK
B3: J22.9-ISY (antibody, V domains shown)
VH: B1 VH with M34I, D54S, M107Y
VL: B2 VL

What follows are binders tested against T2, extracellular domain of cynomolgous BCMA (cynomolgous, UniProt A0A2K5UD97 1-53) (assay: SPR, IgG immobilised on GLH chip, BCMA in the mobile phase (n = 2)).
T2 construct: Used coated on plates in ELISA and in the mobile phase in SPR; also called cyBCMA; cynoBCMA
T2 sequence (A0A2K5UD97 entry or part of it limits assumed, form in doubt): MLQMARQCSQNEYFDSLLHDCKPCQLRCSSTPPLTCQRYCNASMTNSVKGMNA

Row | Binder | Kd
1 | B1 | 200 nM
2 | B2 | 20 nM
3 | B3 | 17 nM

Each binder was assayed against T1, extracellular domain of human CD269 … (assay: SPR, IgG immobilised on GLH chip, BCMA in the mobile phase (n = 3)).

Row | Binder | Kd
4 | B1 | 15 nM
5 | B2 | 2.2 nM
6 | B3 | 2 nM
